According to patent US20210238302A1, “HIGH AFFINITY MONOCLONAL ANTIBODIES (MABS) AGAINST CELL SURFACE EXPRESSED HUMAN CARBONIC ANHYDRASE IX (HCA-IX), AND USES THEREOF” (NATIONAL RESEARCH COUNCIL OF CANADA, priority 2018, published 2021):

Experiments:
rhCA-IX ECD = rhCA-IX ECD (Homo sapiens, UniProt Q16790); test: Reverse Phase Protein Array (RPPA); type: binding
hCA-IX ECD fragments = test: Epitope mapping by Yeast Surface Display (whole yeast cell ELISA); type: binding, human; set-up: key: −: no binding; +: binding
Procedure: Yeast Surface Display (YSD; developed by the Wittrup lab) is used for presenting properly folded (ensured by the “quality-control” processes of the secretory pathway of the yeast) antigen fragments on the yeast cell surface through covalent linkage (FIG. 15A). […] The epitope mapping of the mAbs was performed using a whole yeast cell ELISA protocol. […] These experiments were performed on native and denatured yeast cells, where in both cases binding of each mAb was normalized to the anti-MYC signal. The ratio of each normalized anti-CA-IX mAb signal of native versus denatured hCA-IX peptide is thus indicative of the conformational nature of the mAb binding epitope. In the native hCA-IX experiments the commercial M75 mAb was used as a positive control; the epitope of this mAb is known (Zavada et al., 2000) and is located in hCA-IX's PG domain.

B1: 9B6: mouse IgG2b monoclonal antibody inhibiting hCA-IX catalytic activity; SEQ ID NO.14 and 18; hybridoma-derived and recombinant (SEQ ID NO. 24 and 25) (antibody, V domains shown)
VL: DIVLTQSPSSLAVSLGQRATISCKASQSVDYDGNSYMNWFQQKPGQPPKLLIYEASSLESGIPARISGSGSGTDFTLNIHPVEEEDAATYYCQQSYEGPYTFGGGTKLEIK
VH: QVQLQQPGAELVKPGASVKLSCKASGYIFTTKWINWVKQRPGQGLEWIGNIYPGSSNTYYNEKFKNKATLTVDKSSNTAHLQLSSLTSEDSAVYYCARGIANWGQGTPVTVSA
- Antigen in protein mixture Native (C) (rhCA-IX ECD): 5.79
- mAb binding specificity (rhCA-IX ECD): rhCA-IX
- preference for native or denatured rhCA-IX ECD (rhCA-IX ECD): slightly increased preference for the denatured protein
- Ratio (A)/(B) (Possibly epitope related) (rhCA-IX ECD; native/denatured purified antigen): 0.68
- Purified Antigen Denatured (B) (rhCA-IX ECD; non-purified hybridoma mAb): 21.55
- Purified Antigen Native (A) (rhCA-IX ECD; non-purified hybridoma mAb): 14.75
- Anti-CA-IX Ab binding intensity (normalized on CA-IX_MYC expression on cells) (hCA-IX ECD fragments; Denatured CA-IX protein, EBY100, No-plasmid, Strain Ctrl, Neg Ctrl (PNL6 series)): −
- Anti-CA-IX Ab binding intensity (normalized on CA-IX_MYC expression on cells) (hCA-IX ECD fragments; Denatured CA-IX protein, EBY100, No-plasmid, Strain Ctrl, Neg Ctrl (PNL200 series)): −
- Anti-CA-IX Ab binding intensity (normalized on CA-IX_MYC expression on cells) (hCA-IX ECD fragments; Denatured CA-IX protein, clone 1A, PNL6, Aga2-HA-CA9-MYC, fragment 1, aa 52-111, PG): −
- Anti-CA-IX Ab binding intensity (normalized on CA-IX_MYC expression on cells) (hCA-IX ECD fragments; Denatured CA-IX protein, clone 2B, PNL6, Aga2-HA-CA9-MYC, fragment 2, aa 38-136, +PG+): −
- Anti-CA-IX Ab binding intensity (normalized on CA-IX_MYC expression on cells) (hCA-IX ECD fragments; Denatured CA-IX protein, clone 3A, PNL6, Aga2-HA-CA9-MYC, fragment 3, aa 1-136, SP+PG+): −
- Anti-CA-IX Ab binding intensity (normalized on CA-IX_MYC expression on cells) (hCA-IX ECD fragments; Denatured CA-IX protein, clone 11B, PNL6, Aga2-HA-X-MYC, Plasmid Ctrl, Neg Ctrl): −
- Anti-CA-IX Ab binding intensity (normalized on CA-IX_MYC expression on cells) (hCA-IX ECD fragments; Denatured CA-IX protein, clone 12B, PNL200, CA9-Aga2-MYC, fragment 1, aa 52-111, PG): −
- Anti-CA-IX Ab binding intensity (normalized on CA-IX_MYC expression on cells) (hCA-IX ECD fragments; Denatured CA-IX protein, clone 13A, PNL200, CA9-Aga2-MYC, fragment 2, aa 38-136, +PG+): −
- Anti-CA-IX Ab binding intensity (normalized on CA-IX_MYC expression on cells) (hCA-IX ECD fragments; Denatured CA-IX protein, clone 14A, PNL200, CA9-Aga2-MYC, fragment 3, aa 1-136, SP+PG+): −
- Anti-CA-IX Ab binding intensity (normalized on CA-IX_MYC expression on cells) (hCA-IX ECD fragments; Denatured CA-IX protein, clone 22A, PNL200, X-Aga2-MYC, Plasmid Ctrl, Neg Ctrl): −
- Anti-CA-IX Ab binding intensity (normalized on CA-IX_MYC expression on cells) (hCA-IX ECD fragments; Native CA-IX protein, EBY100, No-plasmid, Strain Ctrl, Neg Ctrl (PNL6 series)): −
- Anti-CA-IX Ab binding intensity (normalized on CA-IX_MYC expression on cells) (hCA-IX ECD fragments; Native CA-IX protein, EBY100, No-plasmid, Strain Ctrl, Neg Ctrl (PNL200 series)): −
- Anti-CA-IX Ab binding intensity (normalized on CA-IX_MYC expression on cells) (hCA-IX ECD fragments; Native CA-IX protein, clone 1A, PNL6, Aga2-HA-CA9-MYC, fragment 1, aa 52-111, PG): −
- Anti-CA-IX Ab binding intensity (normalized on CA-IX_MYC expression on cells) (hCA-IX ECD fragments; Native CA-IX protein, clone 2B, PNL6, Aga2-HA-CA9-MYC, fragment 2, aa 38-136, +PG+): −
- Anti-CA-IX Ab binding intensity (normalized on CA-IX_MYC expression on cells) (hCA-IX ECD fragments; Native CA-IX protein, clone 3A, PNL6, Aga2-HA-CA9-MYC, fragment 3, aa 1-136, SP+PG+): −
- Anti-CA-IX Ab binding intensity (normalized on CA-IX_MYC expression on cells) (hCA-IX ECD fragments; Native CA-IX protein, clone 11B, PNL6, Aga2-HA-X-MYC, Plasmid Ctrl, Neg Ctrl): −
- Anti-CA-IX Ab binding intensity (normalized on CA-IX_MYC expression on cells) (hCA-IX ECD fragments; Native CA-IX protein, clone 12B, PNL200, CA9-Aga2-MYC, fragment 1, aa 52-111, PG): −
- Anti-CA-IX Ab binding intensity (normalized on CA-IX_MYC expression on cells) (hCA-IX ECD fragments; Native CA-IX protein, clone 13A, PNL200, CA9-Aga2-MYC, fragment 2, aa 38-136, +PG+): −
- Anti-CA-IX Ab binding intensity (normalized on CA-IX_MYC expression on cells) (hCA-IX ECD fragments; Native CA-IX protein, clone 14A, PNL200, CA9-Aga2-MYC, fragment 3, aa 1-136, SP+PG+): −
- Anti-CA-IX Ab binding intensity (normalized on CA-IX_MYC expression on cells) (hCA-IX ECD fragments; Native CA-IX protein, clone 22A, PNL200, X-Aga2-MYC, Plasmid Ctrl, Neg Ctrl): −
